Holding throughout (test): SPR
A general note: In SPR one partner is held on a chip, and binding of the other changes the refractive index at the surface.

Test [1] deals with T1, SARS-CoV-2 spike protein, gamma variant (SPR, FIG. 28 Panel C) (SARS-CoV-2, UniProt P0DTC2 16-1213).
Test [2] has as its target SARS-CoV-2 spike protein, Delta variant (SPR) (SARS-CoV-2, UniProt P0DTC2 16-1213).
The target in test [3] is T2, SARS-CoV-2 spike protein, beta variant (SPR, FIG. 28 Panel B) (SARS-CoV-2, UniProt P0DTC2 16-1213).
Test [4] addresses T3, SARS-CoV-2 spike protein, kappa variant (SPR, FIG. 28 Panel D) (SARS-CoV-2, UniProt P0DTC2 16-1213).
Test [5] deals with SARS-CoV-2 S Trimer Alpha B.1.1.7 UK variant.
The target in test [6] is SARS-CoV-2 spike protein, wildtype variant (SPR, FIG. 28 Panel A) (SARS-CoV-2, UniProt P0DTC2 16-1213).
The target in test [7] is T3, SARS-CoV-2 spike protein, kappa variant …. This is another data set of the same source.
Test [8] addresses T2, SARS-CoV-2 spike protein, beta variant …. This is another data set of the same source.
Test [9] concerns the target T1, SARS-CoV-2 spike protein, gamma variant …. The source holds these as a separate data set.
Test [10] has as its target SARS-CoV-2 mutant trimer UK TB918-09.

The values below come from patent US20230002478A1 (published 2023).

Several values for one entry are separate records, joined by “and”; a condition that tells them apart may be missing. Equal values may be shown once. Read-outs that look alike come from different tables or passages of the source.

B1: antibody 339-031 (Fc fusion)
chain: EVQLVESGGGLVQPGGSLRLSCAASGSTFSINAMGWFRQAPGKEREFVAGITSSGGYTNYADSVKGRFTISADNSKNTAYLQMNSLKPEDTAVYYCAADGVPEYSDYASGPVWGQGTLVTVSS
With B1, the Kd is less than 0.0094 nM in test [1], less than 0.011 nM in [2], less than 0.0096 nM in [3] and less than 0.01 nM in [4].

B2: T8339-031 (Fc fusion)
chain: EVQLVESGGGLVQPGGSLRLSCAASGSTFSINAMGWFRQAPGKEREFVAGITSSGGYTNYADSVKGRFTISADNSKNTAYLQMNSLKPEDTAVYYCAADGVPEYSDYASGPVWGQGTLVTVSS
The molecule B2 returned a Kd in test [5] of less than 0.011 nM.

B3: antibody 202-03 (Fc fusion)
chain: EVQLVESGGGLVQPGGSLRLSCAASGFTFSPSWMGWFRQAPGKEREFVATINEYGGRNYADSVKGRFTISADNSKNTAYLQMNSLKPEDTAVYYCARVDRDFDYWGQGTLVTVSS
Take B3: the Kd in test [1] was less than 0.073 nM; in [2], 0.312 nM; in [3], less than 0.095 nM; in [4] it was 0.272 nM; in [6] it was less than 0.064 nM; in [7], 0.105 nM. Besides, the values for the Kd in test [8] and in [9] were less than 0.05 nM and less than 0.041 nM, respectively.

B4: T8202-3 (TP37196F) (Fc fusion)
chain: EVQLVESGGGLVQPGGSLRLSCAASGFTFSPSWMGWFRQAPGKEREFVATINEYGGRNYADSVKGRFTISADNSKNTAYLQMNSLKPEDTAVYYCARVDRDFDYWGQGTLVTVSS
With B4, the Kd in test [5] was less than 0.075 nM.

B5: 6-3 (Fc fusion)
chain: EVQLVESGGGLVQPGGSLRLSCAASGFTFSPSWMGWFRQAPGKEREFVATINEYGGRNYADSVKGRFTISADNSKNTAYLQMNSLKPEDTAVYYCARVDRDFDYWGQGTLVTVSS
Consider B5, for which the Kd in test [10] was 0.857 nM and 1.3 nM.

A word on the Kd: it is the free concentration of one partner at which half of the binding sites on the other are occupied at equilibrium, for simple one-to-one binding. A higher Kd goes with weaker binding.
